pIC50, pKd: −log10 of the molar value.
Legend:
HLA-B*27:20 = test: IEDB peptide-MHC binding, purified MHC/competitive/fluorescence; filed as Kd, often an IC50 or EC50 that approximates it; ≥ and ≤ were set here for values at or beyond the usual limits of such assays
HLA-B*40:01 [1] = test: as above; conditions: source organism: Salmonella enterica subsp. enterica serovar Paratyphi B str. SPB7
HLA-B*15:42 = test: as above
HLA-B*39:01 = test: as above; conditions: source organism: Salmonella enterica subsp. enterica serovar Paratyphi B str. SPB7
HLA-B*45:06 = test: as above
HLA-B*83:01 = test: as above
HLA-B*48:01 = test: IEDB peptide-MHC binding, purified MHC/direct/fluorescence; filed as Kd, often an IC50 or EC50 that approximates it; ≥ and ≤ were set here for values at or beyond the usual limits of such assays
HLA-B*27:05 = test: as above
HLA-B*73:01 [2] = test: as above
HLA-B*15:02 = test: as above; conditions: source organism: Yersinia enterocolitica subsp. enterocolitica 8081
HLA-A*69:01 = test: as above
HLA-B*40:01 [3] = test: as above; conditions: source organism: Yersinia pestis Nepal516
HLA-A*01:01 = test: as above
HLA-B*58:01 = test: as above
HLA-B*15:01 = test: as above
HLA-B*35:01 = test: as above; conditions: source organism: Yersinia pestis
HLA-A*03:01 = test: as above
HLA-A*31:01 = test: as above
HLA-B*44:02 = test: as above; conditions: source organism: Yersinia pestis Nepal516
HLA-A*02:19 = test: as above; conditions: source organism: Yersinia enterocolitica subsp. enterocolitica 8081
HLA-B*46:01 = test: as above; conditions: source organism: Yersinia pestis Nepal516
HLA-A*11:01 = test: as above
HLA-B*07:02 = test: as above
HLA-A*26:01 = test: as above
HLA-A*02:01 [4] = test: as above
HLA-B*57:01 = test: as above; conditions: source organism: Rickettsia prowazekii
HLA-B*18:01 = test: as above; conditions: source organism: Rickettsia prowazekii
HLA-C*06:02 [5] = test: as above
HLA-B*08:03 = test: as above; conditions: source organism: Rickettsia typhi str. Wilmington
HLA-B*08:02 = test: as above; conditions: source organism: Rickettsia typhi str. Wilmington
HLA-C*15:02 = test: as above
HLA-B*15:09 = test: as above; conditions: source organism: Rickettsia typhi str. Wilmington
HLA-A*68:02 = test: as above; conditions: source organism: Rickettsia prowazekii
HLA-A*30:01 = test: IEDB peptide-MHC binding, purified MHC/competitive/fluorescence; filed as Kd, often an IC50 or EC50 that approximates it; ≥ and ≤ were set here for values at or beyond the usual limits of such assays; conditions: source organism: Rickettsia prowazekii str. Madrid E
HLA-B*15:17 = test: as above; conditions: source organism: Rickettsia prowazekii str. Madrid E
HLA-B*08:01 = test: as above; conditions: source organism: Rickettsia prowazekii str. Madrid E
HLA-B*73:01 [6] = test: as above
HLA-B*51:01 = test: IEDB peptide-MHC binding, purified MHC/direct/fluorescence; filed as Kd, often an IC50 or EC50 that approximates it; ≥ and ≤ were set here for values at or beyond the usual limits of such assays; conditions: source organism: Escherichia coli O157:H7
HLA-C*08:02 = test: as above; conditions: source organism: Escherichia coli HS
HLA-C*06:02 [7] = test: IEDB peptide-MHC binding, purified MHC/competitive/fluorescence; filed as Kd, often an IC50 or EC50 that approximates it; ≥ and ≤ were set here for values at or beyond the usual limits of such assays; conditions: source organism: Escherichia coli HS
HLA-C*14:02 = test: as above; conditions: source organism: Escherichia coli HS
HLA-A*02:01 [8] = test: IEDB peptide-MHC binding, purified MHC/competitive/radioactivity; ≥ and ≤ were set here for values at or beyond the usual limits of such assays; conditions: source organism: Homo sapiens
[9] = source organism: Salmonella enterica subsp. enterica serovar Paratyphi B str. SPB7
[10] = source organism: human gammaherpesvirus 4
[11] = source organism: Brucella abortus 2308
[12] = source organism: Yersinia pestis
[13] = source organism: Yersinia pestis Nepal516
[14] = source organism: Rickettsia prowazekii
[15] = source organism: Rickettsia prowazekii str. Madrid E
[16] = source organism: Human herpesvirus 4 strain B95-8
[17] = source organism: Escherichia coli HS

YESSHWLVV
pKd (HLA-B*27:20; [9]): 6.95 | pKd (HLA-B*40:01 [1]): 8.30 | pKd (HLA-B*15:42; [9]): ≤ 5.30 | pKd (HLA-B*39:01): 7.43 | pKd (HLA-B*45:06; [9]): ≤ 5.30 | pKd (HLA-B*83:01; [9]): ≤ 5.30

RRLHRLLLM
pKd (HLA-B*27:20; [10]): ≥ 10.00 | pKd (HLA-B*15:42; [10]): ≤ 5.30 | pKd (HLA-B*45:06; [10]): ≤ 5.30 | pKd (HLA-B*83:01; [10]): ≤ 5.30

YRSGVPVEK
pKd (HLA-B*48:01; [11]): ≤ 4.70 | pKd (HLA-B*27:05; [11]): 7.21 | pKd (HLA-B*73:01 [2]; source organism: Brucella suis 1330): ≤ 4.70

WLWVSSSDM
pKd (HLA-B*15:02): 8.52 | pKd (HLA-A*69:01; [12]): 6.94 | pKd (HLA-B*40:01 [3]): ≤ 4.70 | pKd (HLA-A*01:01; [13]): ≤ 4.70 | pKd (HLA-B*58:01; [13]): ≤ 4.70 | pKd (HLA-B*15:01; [12]): 5.86 | pKd (HLA-B*35:01): 7.65 | pKd (HLA-A*03:01; [13]): ≤ 4.70 | pKd (HLA-A*31:01; [13]): ≤ 4.70 | pKd (HLA-B*44:02): ≤ 4.70 | pKd (HLA-B*27:05; [12]): ≤ 5.30 | pKd (HLA-A*02:19): 7.92 | pKd (HLA-B*46:01): ≤ 4.70 | pKd (HLA-A*11:01; [13]): ≤ 4.70 | pKd (HLA-B*07:02; [12]): ≤ 5.30 | pKd (HLA-A*26:01; [13]): ≤ 4.70 | pKd (HLA-A*02:01 [4]; [12]): 6.00

RRNRKALWL
pKd (HLA-B*57:01): ≤ 4.70 | pKd (HLA-B*18:01): ≤ 4.70 | pKd (HLA-A*69:01; [14]): ≤ 4.70 | pKd (HLA-C*06:02 [5]; [15]): 7.51 | pKd (HLA-A*01:01; [14]): ≤ 4.70 | pKd (HLA-B*08:03): ≤ 4.70 | pKd (HLA-B*58:01; [14]): ≤ 4.70 | pKd (HLA-B*15:01; [14]): ≤ 4.70 | pKd (HLA-B*08:02): ≤ 4.70 | pKd (HLA-A*03:01; [14]): ≤ 4.70 | pKd (HLA-A*31:01; [14]): ≤ 4.70 | pKd (HLA-B*48:01; [14]): ≤ 4.70 | pKd (HLA-B*27:05; [14]): 7.33 | pKd (HLA-B*73:01 [2]; [14]): 5.47 | pKd (HLA-C*15:02; [15]): ≤ 4.70 | pKd (HLA-A*11:01; [14]): ≤ 4.70 | pKd (HLA-B*15:09): ≤ 4.70 | pKd (HLA-B*07:02; [14]): 5.16 | pKd (HLA-A*68:02): ≤ 4.70 | pKd (HLA-A*26:01; source organism: Rickettsia typhi str. Wilmington): ≤ 4.70 | pKd (HLA-A*02:01 [4]; [14]): ≤ 4.70 | pKd (HLA-A*30:01): ≤ 4.70 | pKd (HLA-B*15:17): ≤ 4.70 | pKd (HLA-B*08:01): 5.52

KEWCGNLIV
pKd (HLA-B*73:01 [6]; source organism: Entamoeba histolytica): ≤ 4.70

RRRRRRAAL
pKd (HLA-B*27:20; [16]): ≥ 9.00 | pKd (HLA-B*15:42; [16]): ≤ 5.30 | pKd (HLA-B*45:06; [16]): ≤ 5.30 | pKd (HLA-B*83:01; [16]): ≤ 5.30

YLREHIRAM
pKd (HLA-B*51:01): ≤ 4.70 | pKd (HLA-C*15:02; [17]): ≤ 4.70 | pKd (HLA-C*08:02): ≤ 4.70 | pKd (HLA-B*07:02; source organism: Escherichia coli O157:H7): 8.22 | pKd (HLA-C*06:02 [7]): 7.16 | pKd (HLA-B*15:42; [17]): ≤ 5.30 | pKd (HLA-B*45:06; [17]): ≤ 5.30 | pKd (HLA-B*83:01; [17]): ≤ 5.30 | pKd (HLA-C*14:02): 8.74

ILTVILGVL
pIC50 (HLA-A*02:01 [8]): 6.42

TRYYWDIHL
pKd (HLA-C*06:02 [5]; source organism: Escherichia coli O157:H7 str. EDL933): 7.29

YRGGGQQHV
pKd (HLA-B*73:01 [6]; source organism: Brucella abortus S19): 5.52

From the Immune Epitope Database (IEDB)
